This note sets out measurements from publication PMC314469, “Protein Interaction Networks by Proteome Peptide Scanning” (PLoS Biology, 2004).

T1: amphyphisin SH3 (AMPH_HUMAN), P49418
T1 chain: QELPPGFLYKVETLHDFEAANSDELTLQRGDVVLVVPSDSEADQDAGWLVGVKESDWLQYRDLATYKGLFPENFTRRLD

B1: Q9ULT2 465-478 (peptide)
chain: GKGRPDRPARRPSP
B2: BAC05410 275-289 (peptide)
chain: GPAPPPRPPQLERH
B3: Q9HCE9 774-787 (peptide)
chain: GPERPKRPGSLLAP
B4: Q9C095 222-236 (peptide)
chain: GNAGPRRPPGDPST
B5: Q12972 185-198 (peptide)
chain: GNLDIQRPKRKRKN
B6: Q9P2Q0 476-489 (peptide)
chain: GLSGLKRPSSSAST
B7: Q9P1Z1 1-14 (peptide)
chain: GLEVPRRPGARTGP
B8: Q9H427 273-286 (peptide)
chain: GLWLPRRPARSVGS
B9: Q9H4M7 492-506 (peptide)
chain: GLGGPQKPPPHTEP
B10: Q9NRA6 251-264 (peptide)
chain: GNANIQRPSRKSVN
B11: Q12946 16-30 (peptide)
chain: GIRRPEKPPYSYIA
B12: Q9H4V5 197-210 (peptide)
chain: GLSTLQRPLKDVTD
B13: Q9ULW0 414-428 (peptide)
chain: GPILPKKPPVKPPT
B14: O15085 1403-1416 (peptide)
chain: GNDDPRRPSRSPPS
B15: Q9Y687 56-69 (peptide)
chain: GPAPLRRPDSSDDR
B16: O60307 800-813 (peptide)
chain: GPAGPKRPVFILGE
B17: O95985 843-856 (peptide)
chain: GKPNPRRPKDKMSA
B18: Q06265 140-153 (peptide)
chain: ALSHFRRPDVSVQG
B19: O94850 125-138 (peptide)
chain: GLPAPLRPERLAPV
B20: O15082 431-444 (peptide)
chain: GKLKLKRPEQLQEV
B21: Q9H6F5 54-68 (peptide)
chain: GLGSPERPPKTSPG
B22: Q12947 93-107 (peptide)
chain: GLRRPEKPPYSYIA
B23: O14646 1427-1440 (peptide)
chain: ALKQLDRPEKGLSE
B24: Q8WXD9 1334-1348 (peptide)
chain: ALHVPAKPPRAAAA
B25: P81489 112-126 (peptide)
chain: GPGKPERPPPQGGD
B26: Q96CI4 37-50 (peptide)
chain: GPAGLRRPPDKQPS
B27: Q9HAH2 675-688 (peptide)
chain: GKRPIKRPAYWRTE
B28: O60795 134-147 (peptide)
chain: GMEKIWRPNRVFSL
B29: P13497 12-25 (peptide)
chain: GLLLLPRPGRPLDL
B30: Q9H5Z2 504-517 (peptide)
chain: GKNRPLRPSRRRQL
B31: Q9HCE9 329-342 (peptide)
chain: GLLSLRRPAPRRLE
B32: Q9H6W1 84-97 (peptide)
chain: GKSHPKRPNSQSQH
B33: Q9BW19 13-26 (peptide)
chain: GNIELKRPLIKAPS
B34: Q9NVN2 625-638 (peptide)
chain: GKLPPKRPELPPTL
B35: Q04197 18-31 (peptide)
chain: AAMHPRRPDGFDGL
B36: Q9UEE5 25-39 (peptide)
chain: GLSGPSRPPPPPQA
B37: Q9UHN6 29-43 (peptide)
chain: GKVVPLRPPPPPKS
B38: Q14526 480-493 (peptide)
chain: GLGELLRPYRSASS

The target of the first experiment is T1, amphyphisin SH3 (AMPH_HUMAN), P49418. As to the kind of experiment: SPOT array.
Molecule B1 came in with a normalised SPOT signal, Boehringer light units (BLU); mean over the file's lines of this peptide of 2720.
The same measure, in the same setting: next, B2: 1000; B3: 2440.
Same read-out and setting: the figure for B4 is 37.1; for B5 it is 2140; for B6 it is 32.5.
In the case of B7, the normalised SPOT signal, Boehringer light units (BLU); mean over the file's lines of this peptide came to 29.7.
The same measure, in the same setting: next, B8: 8350; B9: 40.1; B10: 3260.
Still for that read-out and setting: the figure for B11 is 53.1.
Same read-out and setting: next, B12: 108; B13: 44.6; B14: 2210.
Regarding B15, the normalised SPOT signal, Boehringer light units (BLU); mean over the file's lines of this peptide is 46.8.
Still for that read-out and setting: the figure for B16 is 9.6; for B17 it is 13.6; for B18 it is 19.7.
Same read-out and setting: next, B19: 2410; B20: 32.6.
Still for that read-out and setting: the figure for B21 is 122.
For the molecule B22, the normalised SPOT signal, Boehringer light units (BLU); mean over the file's lines of this peptide was 34.9.
Still for that read-out and setting: the figure for B23 is 42.4.
Take B24: the normalised SPOT signal, Boehringer light units (BLU); mean over the file's lines of this peptide amounted to 4080.
The same measure, in the same setting: next, B25: 33.9.
Still for that read-out and setting: next, B26: 27.8; B27: 3.7; B28: 1120.
The molecule B29 yielded a normalised SPOT signal, Boehringer light units (BLU); mean over the file's lines of this peptide of 97.6.
On the same count and under the same terms, next, B30: 7430; B31: 13.3; B32: 45.5.
On the same count and under the same terms, the figure for B33 is 25.9.
On the same count and under the same terms, next, B34: 30.7; B35: 53.6.
With B36, the normalised SPOT signal, Boehringer light units (BLU); mean over the file's lines of this peptide was 78.2.
Same read-out and setting: the figure for B37 is 499; for B38 it is 367.

The next experiment addresses endophilin SH3 (SH3G2_HUMAN), Q99962. Nature of the experiment: SPOT array.
For B1, the normalised SPOT signal, Boehringer light units (BLU); mean over the file's lines of this peptide came out at 8700.
Same read-out and setting: next, B2: 10700.
Molecule B3 displayed a normalised SPOT signal, Boehringer light units (BLU); mean over the file's lines of this peptide of 12300.
Molecule B4 returned a normalised SPOT signal, Boehringer light units (BLU); mean over the file's lines of this peptide of 75.8.
On the same count and under the same terms, next, B5: 48.7.
B6 came in with a normalised SPOT signal, Boehringer light units (BLU); mean over the file's lines of this peptide of 34.9.
The same measure, in the same setting: next, B7: 626.
For the molecule B8, the normalised SPOT signal, Boehringer light units (BLU); mean over the file's lines of this peptide was 1850.
Regarding B9, the normalised SPOT signal, Boehringer light units (BLU); mean over the file's lines of this peptide came to 79.9.
Same read-out and setting: next, B10: 166.
The same measure, in the same setting: next, B11: 864.
Still for that read-out and setting: the figure for B12 is 90.7; for B13 it is 1800; for B14 it is 306.
As for B15, the normalised SPOT signal, Boehringer light units (BLU); mean over the file's lines of this peptide was 45.8.
The same measure, in the same setting: the figure for B16 is 259.
On the same count and under the same terms, next, B17: 87.3; B18: 50.3.
Same read-out and setting: next, B19: 1890.
Molecule B20 came in with a normalised SPOT signal, Boehringer light units (BLU); mean over the file's lines of this peptide of 35.2.
On the same count and under the same terms, the figure for B21 is 508; for B22 it is 285; for B23 it is 295.
Still for that read-out and setting: the figure for B24 is 526; for B25 it is 193; for B26 it is 383.
Still for that read-out and setting: next, B27: 12.8.
In turn, B28 had a normalised SPOT signal, Boehringer light units (BLU); mean over the file's lines of this peptide of 175.
For the molecule B29, the normalised SPOT signal, Boehringer light units (BLU); mean over the file's lines of this peptide stood at 88.4.
The molecule B30 returned a normalised SPOT signal, Boehringer light units (BLU); mean over the file's lines of this peptide of 1860.
On the same count and under the same terms, the figure for B31 is 504.
On the same count and under the same terms, next, B32: 0.
Same read-out and setting: the figure for B33 is 28.8; for B34 it is 205; for B35 it is 14.1.
In turn, B36 returned a normalised SPOT signal, Boehringer light units (BLU); mean over the file's lines of this peptide of 2950.
The same measure, in the same setting: next, B37: 9090; B38: 112.
